Data on 28 sequences can be found in the DeepSol protein solubility set.

The data set is described as follows: soluble on expression in E. coli; label from the status in PepcDB or PDB records.
For “PATDWLSAETFESDLDETRVPEVPSSLHVRPLVTSIVVSWTPPENQNIVVRGYAIGYGIGSPHAQTIKVDYKQRYYTIENLDPSSHYVITLKAFNNVGEGIPLYESAVTRPHT”, the “soluble on expression in E. coli” value is reported as “soluble”.
To “PDGPTQLRALNLTEGFAVLHWKPPQNPVDTYDIQVTAPGAPPLQAETPGSAVDYPLHDLVLHTNYTATVRGLRGPNLTSPASITFTTGLEAPRDLEAKEVTP” belongs “soluble”.
To “PDIHHPSDFSIQKLSKDEDNYVAWKIRFRSFLRVTKKFGFIDGTLPKPDPFSPLYQPWEQCNAMVMYWLMNSMTDKLLESVMYAETAHKMWEDLRRVFVPCVDLKIYQLRRRLATLRQGGDSVEEYFGKLSKVWMELSEYAPIPECKCGGCNCECTKRAEEAREKEQRYEFLMGLKLNQGFEAVTTKIMFQKPPPSLHEAFAMVKDAESMMKWYSR” belongs “not soluble”; to PDVKCVCCTEGKECACFGQDCCVTGECCKDGTCCGI, “soluble”; to “PEQDIVYISASSGSTGVPTASPFTQSDFDGWIDYEARQFWSSGMRPSDRYVHSLNFSLFIGGPCVLGAQKLGALTIHAGTIPSDRLLQILRQFQATVIWTTPSYAWYLGETAIKEGYDLRKDLAVRRIFVAGEPGGSIPETRNRIEQLWGASVYDYYGLSDIFGSCAGMCEQKE”, “not soluble”.
The value for “PESPLRSGRREIANILGVAAQVQRQVAEALRNNNTDGIVDALVRARGTQGQINQMIAAANMGKETIQASPLLWAQRQRIRSMMRILNPVDNAMRNTRVLARRALVLCEDNDEVSGRQIQIIEQLAEVSEDLSNLYYGNSKLSENAEIPRLVNNLKMIGSRTGLEVSEGKVLSAQVVLAQSRSLVVDLLQICGQSRRSAVEILSPTSMHPASVKEIWNDDV” was “not soluble”; that for “PFEPLITAVIETSLNTLIKDDPALGRRLARLKGQVIQVHLKEIDKTLTFVFSQQIDVLGNYEGQPDCYLSLNLSVLPELRDQANITRLIKQDKLELEGDIQLAQKFSQLMTDCKPDIEEWLSRVTGDVVAHTLVQGTKNVGGFFVSQAEKHQRHLAQVVTEEWKLAPAPLEVAYFCDQVDEVRSQASRVEARLNALLSKVGSDKPA” was “not soluble”.
Turning to “PFWSCLHNQLWNYREADQNRINRNQLPLYGVEGRFERMNQHPNAGSHSFSIGVTEVLNSNLLIELRADDIEYVYQRSPGKIISVIIPTFEALTQFGVATITTQNTGEVEASYSLTFDCSTGVTLMEEQYFIIKPKETSIRSFKIYPTTNQAAKYTCSAILKDSDFSEVDRAECQFSTMATVLDNGSQITPFQPPKSSINDFFESIESIGKKLWEGLRDFITGKACRRKCSSFFDFSCHIQYIC”, the “soluble on expression in E. coli” value is “not soluble”.
The value for “PIEGEKVDLRIMSTTDLHTNLVNYDYYQDKESQKIGLAKTAVLIEEAKKENPNTVLVDNGDVIQGTPLGTYKAIVKPVAENEEHPMYQAMNALGYDASTLGNHEFNYGLDYLKKIIATANLPILNANVLDFKTHQPVFKTYDIITKTFKDSTGRAVALNIGITGIVPPQILNWDKANLEGKVIVKDSVKAIEEIVPTMRAKGADVILVLSHSGIGDDRYEEGEENVGYQIASIKGVDAVVTGHSHAEFPSGNGTGFYEKYTGVDGINGKINGTPVTMAGKYGDHLGIIDLGLSYTNGKWQVSESSAKIRKIDMNSTTADERIIALAKEAHDGTINYVRQ” was “not soluble”.
To “PKLVCLVSSSNSFATFLAEEIPIISNKGIGVKGIKLKAEEKVRFAMPLQD” belongs “not soluble”; to “PKPLVILAHEIYGVNSHMKKMGRLIKMAGYDVLTPNLLGEDEVYTLKEEKTAYEQFTKHERLKTGETIIQPVIRQNAGRHIFVIGFSVGATIAWKCSSMPEVSGSVCYYGSRIRDSLHHMPACPVLLFFPNYEPSFDVALLIKKLREKQHTHLEIYQFDALHASP”, “not soluble”; to “PRKRFIYLERKISPAMASYIKELKIPGIHLRKESKRFYPTGEISAHLIGFTNVDDKGIEGIERMYDDLLTGTGGAKRFRKDAKGRKIEIISVEEPEQAQDITLSID”, “not soluble”.
The value for “PRNSKNDGVDTAIYHHKLRDQVLKALYDVLAKESEHPPQSILHTAKAIESEMNKVNNCDTNEAAYKARYRIIYSNVISKNNPDLKHKIANGDITPEFLATCDAKDLAPAPLKQKIEEIAKQNLYNAQGATIERSVTDRFTCGKCKEKKVSYYQLQTRSADEPLTTFCTCEACGNRWKFS” was “soluble”; that for “PSDTVTLFMSGDGGWRDLDKVVAGDMAKMGYPVVGIDVLRYYWEHKTPEQTAADLTDLMNHYRQKWGTKRFILAGYSFGADVMPAIYNRLAADDQNRVDAIILLAFAR” was “not soluble”.
For the sequence “PSQDPRTPGGSEWRETGPQFRCLPPVPADMVFLVDGSWSIGHSHFQQVKDFLASVIAPFEIGPDKVQVGLTQYSGDAQTEWDLNSLSTKEQVLAAVRRLRYKGGNTFTGLALTHVLGQNLQPAAGLRPEAAKVVILVTDGKSQDDVHTAARVLKDLGVNVFAVGVKNADEAELRLLASPPRDITVHSVLDFLQLGALAGLLSRLICQRLQGGSPRQGPAAAPALDTLPAPTSLVLSQVTSSSIRLSWTPAPRHPLKYLIVWRASRGGTPREVVVEGPAASTELHNLASRTEYLVSVFPIYEGGVGEGLRGLVTTAPLPPPRALTLAAVTPRTVHLTWQPSAGATHYLVRCSPASPKGEEEEREVQVGRPEVLLDGLEPGRDYEVSVQSLRGPEGSEARGIRARTPTLAPPRHLGFSDVSHDAARVFWEGAPRPVRLVRVTYVSSEGGHSGQTEAPGNATSAMLGPLSSSTTYTVRVTCLYPGGGSSTLTGRVTTKKAPSPSQLSMTELPGDAVQLAWVAAAPSGVLVYQITWTPLGEGKAHEISVPGNLGTAVLPGLGRHTEYDVTILAYYRDGARSDPVSLRYTPSTVSRSPPSNLALASETPDSLQVSWTPPLGRVLHYWLTYAPASGLGPEKSVSVPGARSHVTLPDLQAATKYRVLVSAIYAAGRSEAVSATGQTACPALRPDGSLPGFDLMVAFSLVEKAYASIRGVAMEPSAFGGTPTFTLFKDAQLTRRVSDVYPAPLPPEHTIVFLVRLLPETPREAFALWQMTAEDFQPLLGVLLDGDVGPASPPAVRRSRGREAPEPWEAFRGSPASRPGPQHPLGGRQVSRAGGCGPH”, the “soluble on expression in E. coli” value is recorded as “soluble”.
With “PVNQKSKRSELSQRRIRRPFSVAEVEALVEAVEHLGTGRWRDVKMRAFDNADHRTYVDLKDKWKTLVHTASIAPQQRRGEPVPQDLLDRVLAAHAYWSQQQGKQHVEPLKILDAKAQKVGA”, the “soluble on expression in E. coli” value is listed as “soluble”.
To “PVSGTPSGITELDNVTTGGQPGELIIIAARPAMGKTTFAQLVAQSTLNKYPDASIQFYSQEMPADQLVQRFMSMRSRISLQSIRQATELTELAWSKIAEAMGYIMNNWKDRLLIDDEPSLPPYRLRTKVRRNTRLYGKPKAIIIDYIQLMRSTGKFENRNLELAEISSELKKLAKETGCPVYALSQLNRSLEQRANKRPVNSDL” belongs “not soluble”.
To “QEGTLERSDWRKFFSEFQAKGTIVVADERQADRAMLVFDPVRSKKRYSPASTFKIPHTLFALDAGAVRDEFQIFRWDGVNRGFAGHNQDQDLRSAMRNSTVWVYELFAKEIGDDKARRYLKKIDYGNADPSTSNGDYWIEGSLAISAQEQIAFLRKLYRNELPFRVEHQRLVKDLMIVEAGRNWILRAKTGWEGRMGWWVGWVEWPTGSVFFALNIDTPNRMDDLFKREAIVRAILRSIEALPPNPAVNSDAAR” belongs “soluble”; to “QESSGNKIHFINVQEGGSDAIILESNGHFAMVDTGEDYDFPDGSDSRYPWREGIETSYKHVLTDRVFRRLKELSVQKLDFILVTHTHSDHIGNVDELLSTYPVDRVYLKKYSDSRITNSERLWDNLYGYDKVLQTATETGVSVIQNITQGDAHFQFGDMDIQLYNYENETDSSGELKKIWDDNSNSLISVVKVNGKKIYLGGDLDNVHGAEDKYGPLIGKVDLMKFNHHHDTNKSNTKDFIKNLSPSLIVQTSDSLPWKNGVDSEYVNWLKERGIERINAASKDYDATVFDIRKDGFVNISTSYKPIPSFQAGWHKSAYGNWWYQAPDSTGEYAVGWNEIEGEWYYFNQTGILLQNQWKKWNNHWFYLTDSGASAKNWKKIDGIWYYFNKENQMEIGWVQDKEQWYYLDVDGSMKTGWLQYMGQWYYFAPSGEMKMGWVKDKETWYYMDSTGVMKTGEIEVAGQHYYLEDSGAMKQGWHKKANDWYFYKTDGSRAVGWIKDKDKWYFLKENGQLLVNGKTPEGYTVDSSGAWLVDVSIEKSATIKTT”, “soluble”; to “QFDPSIVLTEVAMLLEKADINEEVERTKSHLKQFYGIILLEEPIGRKLDFLIQEMNREINTIGSKASSLKITEQVVEMKTTLEKIREQVQNVE”, “not soluble”.
To “QGHMPSDSKKPTIIYPCLWDYRVIMTTKDTSTLKELLETYQRPFKLEFKNTSKNAKFYSFNVSMEVSNESERNEIFQKISQLDKVVQTLGS” belongs “soluble”; to “QGKPREAAQHLEAEASRASGAQRNQLLADAAFAWHEAGDTARAQVLVRQVSVQQLTGESKARFVLLLGELALANRQPVRAFQYFGESSSGLSKKLQIRWLLGRAAALEANGDAFGAAQQRARADQALLGKARNENQAAITRLLAGLDHEVLLTRTAALPVGDPLYHFVGRVLLSRGEALPQPLEGSVQGSVGSSQRPSADTDGYRPPLKLAVLLPLTGSLATAAAPVRDGFLAGYYAETRRRPDLDFFDTGSTPVGAKAAYAKAIAAGADFVVGPLGRDEVSALFSQGQLSIPLLALNRSTGDRVSLPSGSASFSLAPEDDGVIAADYLLAQGQRNVIVIGSNDDVGRRGVQAFMDRFRARGGQVLAALGVADVPGDLGPRLRGADRADAVFLAVRGPTARVLAPQLASLGLSSKPQVGTSQLVLGTGKPEEDTLLDGIVYPTEPWSVQGVKSIPSAADVAVRLPNMRGAALRLFAFGVDAWKLSVYLEGLSAGGAGGGLRGATGTLRLDDSGNVIRIPIWATFRNGQSIPVEML”, “not soluble”.
Regarding “QITLKESGPGIVQPSQPFRLTCTFSGFSLSTSGIGVTWIRQPSGKGLEWLATIWWDDDNRYNPSLKSRLTVSKDTSNNQAFLNMMTVETADTAIYYCAQSAITSVTDSAMDHWGQGTSVTVSSAKTTPPSVYPLAPGSAAQTNSMVTLGCLVKGYFPEPVTVTWNSGSLSSGVHTFPAVLQSDLYTLSSSVTVPSSTWPSETVTCNVAHPASSTKVDKKIVPADC”, the “soluble on expression in E. coli” value was “soluble”.
The value for “QLGMKGYADTIDRQRMQTQAQFVLEKMSREIRHAVPNSFHVPTGSTNCLEFMPIEYSGFYTLTNNNLEFLLGNDSTLNPIPADRWMVINPSRYEDLQSASPQSLAVGNLAKTGD” was “not soluble”; that for “QLKDKFDGRPTKPPPNSYSLYCAELMANMKDVPSTERMVLCSQQWKLLSQKEKDAYHKKCDQKKKDYEVELLRFLESLPEEEQQRVLGEEKMLNI” was “soluble”; that for “QPKPEVPQCVADWIEECKEEDLTLKGLFSNSDMPAKIFDWIFGSDENCRLMAEAWINGYTVEKEKLYTVDLPNGQPLVRGINTLYFSQNLATENVKLTESEIRKDFEWAWQFAEEVTE” was “not soluble”.
To “QPPQFKLDPRLARLLGIHTQTRPVIIQALWQYIKTHKLQDPHEREFVLCDKYLQQIFESQRMKFSEIPQRLHALLMPPEP” belongs “soluble”.
The value for “QPSPPQRPNRCTVCRKRVGLTGFMCRCGTTFCGSHRYPEVHGCTFDFKSAG” was “soluble”.
